The values that follow come from patent publication US20240366624A1 (WASHINGTON UNIVERSITY, published 2024).

Test [1] concerns the target T1, recombinant human ERO1α (endoplasmic reticulum oxidoreductase 1α), wild type (human, UniProt Q96HE7 24-468, biotinylated when coupled to the bio-layer interferometry biosensor (site not stated)).
T1 construct: also called wtERO1α; biotinylated ERO1α
T1 sequence (looked up): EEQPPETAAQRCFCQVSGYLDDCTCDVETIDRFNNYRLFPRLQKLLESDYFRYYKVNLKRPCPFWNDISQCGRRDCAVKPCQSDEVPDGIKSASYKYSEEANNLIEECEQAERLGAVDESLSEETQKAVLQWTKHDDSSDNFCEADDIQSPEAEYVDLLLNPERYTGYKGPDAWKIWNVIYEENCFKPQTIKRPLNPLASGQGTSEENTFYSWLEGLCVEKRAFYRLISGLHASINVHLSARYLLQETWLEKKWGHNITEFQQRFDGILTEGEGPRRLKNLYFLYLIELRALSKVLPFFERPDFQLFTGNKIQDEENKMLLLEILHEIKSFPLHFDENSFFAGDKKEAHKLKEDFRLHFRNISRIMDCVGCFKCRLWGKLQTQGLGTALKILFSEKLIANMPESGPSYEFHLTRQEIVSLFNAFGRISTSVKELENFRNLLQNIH
Put plainly: bio-layer interferometry, biotinylated ERO1α on the biosensor, STIM1 in solution. The source says:
PDI is reported to localize in the DTS of platelets. […] It is reported that deletion of platelet STIM1 reduces Ca²⁺ store content in the DTS and SOCE. Thus, ERO1α regulation of STIM1 function was investigated. Bio-layer interferometry was first performed using a biosensor coupled with biotinylated ERO1α and a different concentration of WT or mutant STIM1 in which Cys49 and Cys56 residues were mutated to Ser49 and Ser56 (mutant STIM1 [mSTIM1]-Cys49/56Ser).
In general terms: Biolayer interferometry detects binding as a change in optical thickness at a sensor tip.

For test [2], the target named is T2, human platelet SERCA2 (sarco/endoplasmic reticulum Ca2+ ATPase 2) (human, UniProt P16615 1-1042, limits assumed).
T2 construct: Co-immunoprecipitated with ERO1α
Put plainly: co-immunoprecipitation of ERO1α from lysates of resting and thrombin-activated human platelets, mass spectrometry; volcano plot thrombin versus no thrombin.

For test [3], the target named is T3, human platelet STIM1 (stromal interaction molecule 1) (human, UniProt Q13586 23-685).
T3 construct: Co-immunoprecipitated with ERO1α
The description is as above.

Test [4] addresses T4, human platelet PDI (protein disulfide isomerase) (human, UniProt P07237 18-508).
T4 construct: Immunoprecipitated with biotinylated polyclonal anti-PDI antibodies
Put plainly: immunoprecipitation of PDI from lysates of resting and thrombin-treated human platelets, immunoblot with anti-ERO1α, densitometry. As to the method: FIG. 1(A-D) is an exemplary embodiment of PDI interacting with ERO1α in platelets in accordance with the present disclosure. Human platelets were treated with or without thrombin for 5 minutes and immunoprecipitated with biotinylated polyclonal anti-PDI antibodies or control IgG. After trypsin digestion, mass spectrometric analysis was conducted. […] FIG. 1B: Examples of the identification of the tryptic peptides […] (SEQ ID NO: 1) and […] (SEQ ID NO: 2) from ERO1α in which the parent ion is observed at 521.77 and 753.37 m/z, respectively, and the parent ion mass error is 4.3 and 3.5 ppm, respectively. FIG. 1C: The peptide sequences of ERO1α that were detected after trypsin digestion. FIG. 1D: After immunoprecipitation with antibodies, the bound fraction was immunoblotted with the indicated antibodies, followed by densitometry (the band density of ERO1a/that of PDI). The data represent the mean±SD (n=3). P value determined by unpaired Student's t-test.
In general terms: Immunoblotting shows a protein as a band on a membrane.

T4 sequence (P07237 18-508 limits assumed): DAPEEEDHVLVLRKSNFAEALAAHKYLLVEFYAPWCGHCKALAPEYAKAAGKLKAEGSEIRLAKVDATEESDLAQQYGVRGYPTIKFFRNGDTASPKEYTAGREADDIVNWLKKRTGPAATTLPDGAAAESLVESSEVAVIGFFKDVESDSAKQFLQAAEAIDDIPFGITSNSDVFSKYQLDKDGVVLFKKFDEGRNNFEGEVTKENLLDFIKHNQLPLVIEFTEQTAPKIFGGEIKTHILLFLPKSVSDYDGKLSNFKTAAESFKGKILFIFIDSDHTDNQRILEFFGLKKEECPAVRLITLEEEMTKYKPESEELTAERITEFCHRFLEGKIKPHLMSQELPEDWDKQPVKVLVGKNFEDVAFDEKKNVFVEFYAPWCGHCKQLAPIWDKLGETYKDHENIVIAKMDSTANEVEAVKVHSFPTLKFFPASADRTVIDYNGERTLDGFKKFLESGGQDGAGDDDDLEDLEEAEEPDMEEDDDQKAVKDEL
T2 sequence (P16615 whole entry): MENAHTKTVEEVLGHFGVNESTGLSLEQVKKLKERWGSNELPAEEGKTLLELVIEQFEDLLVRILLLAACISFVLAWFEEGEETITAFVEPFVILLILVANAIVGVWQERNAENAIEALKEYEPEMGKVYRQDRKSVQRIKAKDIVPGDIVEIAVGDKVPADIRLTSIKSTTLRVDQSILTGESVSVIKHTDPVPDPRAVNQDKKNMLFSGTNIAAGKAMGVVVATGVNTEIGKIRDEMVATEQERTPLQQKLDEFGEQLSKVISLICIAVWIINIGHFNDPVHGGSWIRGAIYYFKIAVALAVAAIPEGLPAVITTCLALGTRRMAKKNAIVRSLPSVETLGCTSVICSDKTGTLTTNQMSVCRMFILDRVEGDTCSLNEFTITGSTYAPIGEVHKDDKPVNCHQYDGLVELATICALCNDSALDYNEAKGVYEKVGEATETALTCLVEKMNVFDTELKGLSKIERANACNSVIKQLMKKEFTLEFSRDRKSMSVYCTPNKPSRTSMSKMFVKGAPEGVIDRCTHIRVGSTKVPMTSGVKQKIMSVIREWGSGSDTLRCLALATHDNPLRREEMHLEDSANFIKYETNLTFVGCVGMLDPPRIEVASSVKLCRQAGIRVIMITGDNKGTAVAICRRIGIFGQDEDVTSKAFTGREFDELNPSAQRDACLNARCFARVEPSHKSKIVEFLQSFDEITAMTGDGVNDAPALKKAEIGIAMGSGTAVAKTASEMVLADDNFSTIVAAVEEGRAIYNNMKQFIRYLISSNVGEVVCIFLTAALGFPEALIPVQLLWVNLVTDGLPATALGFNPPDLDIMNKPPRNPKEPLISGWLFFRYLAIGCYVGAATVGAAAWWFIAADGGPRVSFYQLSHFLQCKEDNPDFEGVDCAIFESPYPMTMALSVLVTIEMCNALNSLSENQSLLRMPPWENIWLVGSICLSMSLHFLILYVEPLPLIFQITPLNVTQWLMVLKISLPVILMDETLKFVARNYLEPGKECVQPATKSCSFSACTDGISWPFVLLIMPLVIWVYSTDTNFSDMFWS

B1: wild type STIM1, recombinant (other, UniProt Q13586 23-213, looked up)
chain: LSHSHSEKATGTSSGANSEESTAAEFCRIDKPLCHSEDEKLSFEAVRNIHKLMDDDANGDVDVEESDEFLREDLNYHDPTVKHSTFHGEDKLISVEDLWKAWKSSEVYNWTVDEVVQWLITYVELPQYEETFRKLQLSGHAMPRLAVTNTTMTGTVLKMTDRSHRQKLQLKALDTVLFGPPLLTRHNHLKD
notes: also called wtSTIM1; WT STIM1
In the case of B1, the equilibrium dissociation constant (Kd) – broadly, a measure of binding affinity in units of concentration – in test [1] was determined as 2.6 µM.

B2: human platelet ERO1α (enzyme, UniProt Q96HE7 24-468, looked up)
chain: T1 sequence (looked up)
notes: Endogenous protein in platelet lysates (immunoprecipitation, immunoblot)
For B2, the binding result in test [2], in test [3] and in test [4] was “binds” in each case.
